# From article PMC3540129
# How the values were obtained:
# [1] = biological target: Kv7.4 (KCNQ4) B segment (Q4B, residues 522-557), tag removed (human) (UniProt P56696); experiment: SEC-MALS
# [2] = biological target: Kv7.5 (KCNQ5) B-D construct (Q5BD), tag removed (human) (UniProt Q9NR82); experiment: SEC
# Sequence of UniProt P56696 (P56696 522-557): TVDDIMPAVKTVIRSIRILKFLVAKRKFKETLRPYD
stoichiometry N [1],stoichiometry N [2],Substance
1,,"Calmodulin (CaM), full-length native (from UniProt P0DP23 1-149) (natural protein)"
,4,"Kv7.5 (KCNQ5) B-D construct (Q5BD), tag removed (from UniProt Q9NR82 1-932) (domain or fragment)"
